# Results taken from publication PMC8960874.
# Target: Clone 16 (Clone 6-KiH-Clone 2) bispecific antibody (mouse | human) [IgG part: P01857]
# Test: SPR
# Settings: domain or fragment
substance,measurement,value
SARS-CoV-2 spike receptor binding domain (RBD) protein with a C-terminal hexahistidine tag (from UniProt P0DTC2 319-541),Kd,2.95 nM
same,koff,0.00461 s⁻¹
